The record followed here is publication PMC10391610, “Survivin prevents the polycomb repressor complex 2 from methylating histone 3 lysine 27” (iScience, 2023).

Common to all, as to assay: peptide or protein array; PEPperCHIP microarray of 15 amino acid peptides with 10 amino acid overlap, immobilised; survivin at 1 μg/ml (53.5 nM monomer) in incubation buffer; stained with 6x His Tag Antibody DyLight680; LI-COR Odyssey read-out
The target in assay [1] is microarray peptides covering EZH2 172–211 (human).
Assay [2] concerns the target microarray peptides covering SUZ12 573–597 (human).
Assay [3] concerns the target microarray peptides covering JARID2 170–194 (human).
Assay [4] addresses microarray peptides covering EED 128–152 (human).
The mark [5] stands for this setting: scale: % of maximum fluorescence intensity units.

Sequence of survivin (His-tagged, from pHIS8) (O15392 whole entry): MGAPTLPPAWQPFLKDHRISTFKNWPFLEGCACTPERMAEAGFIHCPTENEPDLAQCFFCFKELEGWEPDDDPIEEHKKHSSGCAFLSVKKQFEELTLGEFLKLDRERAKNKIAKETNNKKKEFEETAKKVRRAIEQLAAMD

Take “survivin (His-tagged, from pHIS8) (from UniProt O15392 1-142) (natural protein)”: the Integrated FI (units of the maximum FI per peptide) in assay [1] was found to be 4.28; in assay [2] it was 0.6; in assay [3] it was 3; in assay [4], 0.31. In addition, the Average FI (%) was 71 in assay [1] (setting [5]), 20 in assay [2] (setting [5]), 100 in assay [3] (setting [5]) and 10 in assay [4] (setting [5]).
